Ki, fold of Ki against the Ki of follistatin and Kd data for three substances are collected here from patent US20100169989A1.

Experiment [1] has as its target myostatin mature C-terminal dimer (purified from conditioned medium of CHO cells carrying a myostatin expression construct) (UniProt O14793). Put plainly: inhibition of labeled myostatin binding to Act RIIB-transfected COS-7 cells.
Experiment [2] has as its target cell surface binding proteins on L6 myoblasts (GDF-8 receptor). Put plainly: I-125 labeled GDF-8 receptor-ligand binding assay on myoblasts.

Sequence of myostatin prodomain peptide (purified from the CHO cell myostatin preparation) (O08689 25-267): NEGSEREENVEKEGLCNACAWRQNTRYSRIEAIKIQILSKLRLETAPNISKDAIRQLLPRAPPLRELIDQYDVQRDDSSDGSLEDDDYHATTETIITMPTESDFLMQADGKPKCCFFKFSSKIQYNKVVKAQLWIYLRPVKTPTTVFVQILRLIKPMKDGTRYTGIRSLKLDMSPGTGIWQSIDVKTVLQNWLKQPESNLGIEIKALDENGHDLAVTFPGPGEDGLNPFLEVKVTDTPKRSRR

The substance follistatin came in with a Ki in experiment [1] of 470 pM.
Regarding “myostatin prodomain peptide (purified from the CHO cell myostatin preparation)”, in experiment [1], the fold of Ki against the Ki of follistatin amounted to 50 fold.
In turn, “recombinant human GDF-8 (rhGDF-8) homodimer (from UniProt O14793 267-374) (ligand)” yielded a Kd in experiment [2] of 370 pM.

Usually Ki stands for a measure of affinity in units of concentration, obtained from inhibition or displacement. Broadly, the Kd is the equilibrium constant for the complex coming apart.
